Measurements taken from the supplement of paper PMC10567573.

B1: KCNAB2 (parent)
chain: IPPYSRASLKGYQWLKDKILSEEG

Variants of: B1
Assay: protein stability index of a GFP-peptide fusion (GPS, HEK-293T) (PSI 1-6); higher = more stable
Details: c terminus: a fixed tail appended
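Also: lentivirally expressed fusions sorted by FACS into six bins by GFP to DsRed ratio, PSI derived from sequencing read proportions per bin multiplied by bin number.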

Variant | protein stability index
IPPYSRASLKHYQWLKDKILSEEG [G11H] | 2.19
IPPYSRASLKAYQWLKDKILSEEG [G11A] | 1.8
IPPYSRASLKKYQWLKDKILSEEG [G11K] | 1.78
IPPYSRASLKCYQWLKDKILSEEG [G11C] | 1.92
IPPYSRASLKPYQWLKDKILSEEG [G11P] | 2.46
IPPYSRASLKFYQWLKDKILSEEG [G11F] | 3.33
IPPYSRASLKWYQWLKDKILSEEG [G11W] | 3.38
IPPYSRASLKQYQWLKDKILSEEG [G11Q] | 2.96
IPPVSRASLKGYQWLKDKILSEEG [Y4V] | 2.49
IPPISRASLKGYQWLKDKILSEEG [Y4I] | 2.29
IPPRSRASLKGYQWLKDKILSEEG [Y4R] | 2.35
IPPGSRASLKGYQWLKDKILSEEG [Y4G] | 2.76
IPPTSRASLKGYQWLKDKILSEEG [Y4T] | 2.33
IPPQSRASLKGYQWLKDKILSEEG [Y4Q] | 2.96
IPPCSRASLKGYQWLKDKILSEEG [Y4C] | 1.6
IPPFSRASLKGYQWLKDKILSEEG [Y4F] | 2.14
IPPESRASLKGYQWLKDKILSEEG [Y4E] | 4.16
IPPKSRASLKGYQWLKDKILSEEG [Y4K] | 2.77
IPPMSRASLKGYQWLKDKILSEEG [Y4M] | 1.83
IPPWSRASLKGYQWLKDKILSEEG [Y4W] | 1.12
IPPLSRASLKGYQWLKDKILSEEG [Y4L] | 1.34
IPPSSRASLKGYQWLKDKILSEEG [Y4S] | 2.92
IPPDSRASLKGYQWLKDKILSEEG [Y4D] | 4.41
IPPNSRASLKGYQWLKDKILSEEG [Y4N] | 3.1

Variant | protein stability index
IPPASRASLKGYQWLKDKILSEEG [Y4A] | 2.77
IPPYSRASTKGYQWLKDKILSEEG [L9T] | 3.14
IPPYSRASAKGYQWLKDKILSEEG [L9A] | 2.56
IPPYSRASNKGYQWLKDKILSEEG [L9N] | 3.15
IPPYSRASQKGYQWLKDKILSEEG [L9Q] | 2.28
IPPYSRASIKGYQWLKDKILSEEG [L9I] | 2.56
IPPYSRASDKGYQWLKDKILSEEG [L9D] | 2.44
IPPYSRASRKGYQWLKDKILSEEG [L9R] | 3.33
IPPYSRASKKGYQWLKDKILSEEG [L9K] | 2.53
IPPYSRASEKGYQWLKDKILSEEG [L9E] | 3.2
IPPYSRASYKGYQWLKDKILSEEG [L9Y] | 2.4
IPPYSRASGKGYQWLKDKILSEEG [L9G] | 3.22
IPPYSRASWKGYQWLKDKILSEEG [L9W] | 2.22
IPPYSRASHKGYQWLKDKILSEEG [L9H] | 2.38
IPPYSRASCKGYQWLKDKILSEEG [L9C] | 1.77
IPPYSRASMKGYQWLKDKILSEEG [L9M] | 2.24
IPPYSRASFKGYQWLKDKILSEEG [L9F] | 2.61
IPPYSRASSKGYQWLKDKILSEEG [L9S] | 3.84
IPPYSRASPKGYQWLKDKILSEEG [L9P] | 3.25
IEPYSRASLKGYQWLKDKILSEEG [P2E] | 2.87
ITPYSRASLKGYQWLKDKILSEEG [P2T] | 1.62
IYPYSRASLKGYQWLKDKILSEEG [P2Y] | 2.56
IKPYSRASLKGYQWLKDKILSEEG [P2K] | 2.02
IQPYSRASLKGYQWLKDKILSEEG [P2Q] | 2.92

Variant | protein stability index
ILPYSRASLKGYQWLKDKILSEEG [P2L] | 2.04
IRPYSRASLKGYQWLKDKILSEEG [P2R] | 2.62
IAPYSRASLKGYQWLKDKILSEEG [P2A] | 1.52
IHPYSRASLKGYQWLKDKILSEEG [P2H] | 1.92
IFPYSRASLKGYQWLKDKILSEEG [P2F] | 2.2
IVPYSRASLKGYQWLKDKILSEEG [P2V] | 3.44
IIPYSRASLKGYQWLKDKILSEEG [P2I] | 1.25
INPYSRASLKGYQWLKDKILSEEG [P2N] | 1.86
ISPYSRASLKGYQWLKDKILSEEG [P2S] | 2.66
IMPYSRASLKGYQWLKDKILSEEG [P2M] | 1.37
IDPYSRASLKGYQWLKDKILSEEG [P2D] | 1.7
ICPYSRASLKGYQWLKDKILSEEG [P2C] | 1.88
IPPYSEASLKGYQWLKDKILSEEG [R6E] | 3.93
IPPYSGASLKGYQWLKDKILSEEG [R6G] | 2.53
IPPYSIASLKGYQWLKDKILSEEG [R6I] | 2.06
IPPYSLASLKGYQWLKDKILSEEG [R6L] | 2.45
IPPYSSASLKGYQWLKDKILSEEG [R6S] | 3.06
IPPYSPASLKGYQWLKDKILSEEG [R6P] | 2.67
IPPYSTASLKGYQWLKDKILSEEG [R6T] | 2.59
IPPYSCASLKGYQWLKDKILSEEG [R6C] | 1.94
IPPYSKASLKGYQWLKDKILSEEG [R6K] | 2.56
IPPYSNASLKGYQWLKDKILSEEG [R6N] | 2.74
IPPYSFASLKGYQWLKDKILSEEG [R6F] | 2.16
IPPYSHASLKGYQWLKDKILSEEG [R6H] | 2.2

Variant | protein stability index
IPPYSMASLKGYQWLKDKILSEEG [R6M] | 1.95
IPPYSQASLKGYQWLKDKILSEEG [R6Q] | 3.23
IPPYSVASLKGYQWLKDKILSEEG [R6V] | 1.7
IPPYSYASLKGYQWLKDKILSEEG [R6Y] | 1.6
IPPYSAASLKGYQWLKDKILSEEG [R6A] | 2.82
IPPYSRDSLKGYQWLKDKILSEEG [A7D] | 3.15
IPPYSRSSLKGYQWLKDKILSEEG [A7S] | 3.32
IPPYSRCSLKGYQWLKDKILSEEG [A7C] | 1.59
IPPYSRNSLKGYQWLKDKILSEEG [A7N] | 2.22
IPPYSRPSLKGYQWLKDKILSEEG [A7P] | 2.45
IPPYSRLSLKGYQWLKDKILSEEG [A7L] | 3.23
IPPYSRYSLKGYQWLKDKILSEEG [A7Y] | 1.46
IPPYSRVSLKGYQWLKDKILSEEG [A7V] | 2.41
IPPYSRTSLKGYQWLKDKILSEEG [A7T] | 2.23
IPPYSRISLKGYQWLKDKILSEEG [A7I] | 1.93
IPPYSRFSLKGYQWLKDKILSEEG [A7F] | 2.23
IPPYSRESLKGYQWLKDKILSEEG [A7E] | 2.86
IPPYSRQSLKGYQWLKDKILSEEG [A7Q] | 2.58
IPPYSRRSLKGYQWLKDKILSEEG [A7R] | 1.95
IPPYSRMSLKGYQWLKDKILSEEG [A7M] | 1.8
IPPYSRGSLKGYQWLKDKILSEEG [A7G] | 2.58
IPPYSRKSLKGYQWLKDKILSEEG [A7K] | 1.9
